Biological target: Dnmt3a (ADD domain, ADD3a) ADD domain, 479-610 or 476-611 (UniProt Q9Y6K1)
Assay: biotin-peptide pull-down, Coomassie
Details: reference: unmodified H3 peptide; sites S10

binding against the reference: same
Substance: histone H3 (N-terminal peptides) (from UniProt P68431) H3S10ph peptide
